Experimental findings from article PMC7327485 (The EMBO Journal, 2020) are described below.

This data set concerns the molecule itself. Kind of data set: absorbance at 350 nm.

B1: farnesylated hGBP1 R584‐586A (hGBP1F ^R584‐586A) (natural protein)
chain: MASEIHMTGPMCLIENTNGRLMANPEALKILSAITQPMVVVAIVGLYRTGKSYLMNKLAGKKKGFSLGSTVQSHTKGIWMWCVPHPKKPGHILVLLDTEGLGDVEKGDNQNDSWIFALAVLLSSTFVYNSIGTINQQAMDQLYYVTELTHRIRSKSSPDENENEVEDSADFVSFFPDFVWTLRDFSLDLEADGQPLTPDEYLTYSLKLKKGTSQKDETFNLPRLCIRKFFPKKKCFVFDRPVHRRKLAQLEKLQDEELDPEFVQQVADFCSYIFSNSKTKTLSGGIQVNGPRLESLVLTYVNAISSGDLPCMENAVLALAQIENSAAVQKAIAHYEQQMGQKVQLPTETLQELLDLHRDSEREAIEVFIRSSFKDVDHLFQKELAAQLEKKRDDFCKQNQEASSDRCSALLQVIFSPLEEEVKAGIYSKPGGYRLFVQKLQDLKKKYYEEPRKGIQAEEILQTYLKSKESMTDAILQTDQTLTEKEKEIEVERVKAESAQASAKMLQEMQRKNEQMMEQKERSYQEHLKQLTEKMENDRVQLLKEQERTLALKLQEQEQLLKEGFQKESRIMKNEIQDLQTKMAAAKACTIS
modifications: C-terminal farnesyl moiety (added in vitro with farnesyltransferase and farnesyl pyrophosphate)
Turning to B1, the binding result is “binds”.
